# According to publication PMC12000511, “Molecular basis for the assembly of the Vps5-Vps17 SNX-BAR proteins with Retromer” (Nature Communications, 2025):
# Changes are numbered by the printed parent chain. In names and notes the source's numbering stands. Where no end group is shown, it is not given here.
# B1: quadruple mutant Vps5 (L121G/F122G/F161E/L196R): scVps5 mutant altering PL, [K/R]Φ and LFa sites (protein, UniProt Q92331 1-675, looked up, variant L121G F122G F161E L196R)
# Vacuolar protein …: MDYEDNLEAPVWDELNHEGDKTQSLVSNSIESIGQISTNEERKDNELLETTASFADKIDLDSAPEWKDPGLSVAGNPQLEEHDNSKADDLINSLAPEQDPIADLKNSTTQFIATRESGGAGGTGNANSPLVFDDTIYDANTSPNTSKSISGRRSGKPRILEDSARAQRNSKRNHSLKAKRTTASDDTIKTPFTDPRKKAEKENEFVEEPLDDRNERRENNEGKFTASVEKNILEQVDRPLYNLPQTGANISSPAEVEENSEKFGKTKIGSKVPPTEKAVAFKVEVKDPVKVGELTSIHVEYTVISESSLLELKYAQVSRRYRDFRWLYRQLQNNHWGKVIPPPPEKQSVGSFKENFIENRRFQMESMLKKICQDPVLQKDKDFLLFLTSDDFSSESKKRAFLTGSGAINDSNDLSEVRISEIQLLGAEDAAEVLKNGGIDAESHKGFMSISFSSLPKYNEADEFFIEKKQKIDELEDNLKKLSKSLEMVDTSRNTLAASTEEFSSMVETLASLNVSEPNSELLNNFADVHKSIKSSLERSSLQETLTMGVMLDDYIRSLASVKAIFNQRSKLGYFLVVIENDMNKKHSQLGKLGQNIHSEKFREMRKEFQTLERRYNLTKKQWQAVGDKIKDEFQGFSTDKIREFRNGMEISLEAAIESQKECIELWETFYQTNL
# B2: Vps5 (L196R): single amino acid substitution in the core PL motif of scVps5 (protein, UniProt Q92331 1-675, looked up, variant L196R)
# Vacuolar protein …: B1 Vacuolar protein … with G121L, G122F, E161F
# B3: wildtype Vps5: S. cerevisiae wildtype Vps5 re-introduced into knockout cells (protein, UniProt Q92331 1-675, looked up)
# Vacuolar protein …: B1 Vacuolar protein … with G121L, G122F, E161F, R196L
# Tests used:
# [1] = biological target: ctVps29 (Chaetomium thermophilum); experiment: ITC; Microcal PEAQ ITC, 25 °C, 50 mM Tris-HCl pH 7.5, 200 mM NaCl, 2 mM β-ME; Vps5/Vps17/SNX1 construct or peptide (200-400 µM) titrated into 10-15 µM Retromer or Vps29; single-site model, N set to 1.0 if close to 1
# [2] = biological target: ctRetromer (Chaetomium thermophilum Retromer trimer of ctVps35, ctVps26 and ctVps29) (Chaetomium thermophilum); experiment: as above
# [3] = biological target: T1, hRetromer (Homo sapiens, UniProt Q96QK1+Q9UBQ0); experiment: GST pull-down with hRetromer; assay type: binding; details: 1 nmol GST-tagged protein, 2 nmol hRetromer, overnight 4 °C, SDS-PAGE/blot
# T1 construct: GST (N); made in house; host or cells: E. coli BL21(DE3) (general statement for bacterial constructs)
# Description: GST pull-down assay of scVps5 and hRetromer was performed similar to the one described above with some modifications. The purified hRetromer at 2 nmol was mixed with 1 nmol GST-tagged hFam21R19–R21, scVps5_70–128 LF native, scVps5_70–128 LF mutant or GST alone separately overnight at 4 °C before added to fresh glutathione Sepharose pre-equilibrated with buffer as mentioned above. In all cases, beads were washed five times with the equilibration buffer and bounds proteins were analysed by SDS-PAGE gels.
# [4] = biological target: ctVps5 (full length, homodimer) (Chaetomium thermophilum); experiment: mass photometry; Refeyn OneMP, low ionic strength: 50 mM Tris-HCl pH 7.5, 40 mM NaCl, 2 mM β-ME
# [5] = biological target: ctVps5 (full length, homodimer) (Chaetomium thermophilum); experiment: mass photometry; Refeyn OneMP, 50-100 nM protein, 50 mM Tris-HCl pH 7.5, 200 mM NaCl, 2 mM β-ME; ctRetromer and ctVps5 combined in a 1:1 ratio
# [6] = biological target: ctRetromer (Chaetomium thermophilum Retromer trimer of ctVps35, ctVps26 and ctVps29) (Chaetomium thermophilum); experiment: ITC; as a1, with 100 µM of the cyclic peptide RT-D3 in the cell: 200 µM ctVps5 or GST-ctVps5(51–100) titrated into 10 µM ctRetromer or ctVps29
# [7] = biological target: ctRetromer (Chaetomium thermophilum Retromer trimer of ctVps35, ctVps26 and ctVps29) (Chaetomium thermophilum); experiment: ITC; as a1, with 100 µM of the control cyclic peptide RT-D1 L7E in the cell: 200 µM ctVps5 titrated into 10 µM ctRetromer
# [8] = test system: Vps10; experiment: Vps10-mNeonGreen localisation/recycling in vps5Δ yeast (Pearson colocalization with vacuole); assay type: cell-based, Saccharomyces cerevisiae; details: vps5Δ cells complemented with Vps5 variant on plasmid; confocal microscopy
# Source text: Fig. 7 The interaction of Retromer with the Vps5 N-terminal domain is required for Vps10 recycling. A AlphaFold2 predicted structure of the scVps35–scVps29–scVps5 complex highlighting residues targeted for mutagenesis. B Yeast cells (SEY6210) carrying a Vps5 deletion, and expressing a copy of Vam10 (the VAM10 gene is embedded in VPS5 and deleted with it) and Vps10-mNeonGreen were complemented with centromeric plasmids expressing variants of Vps5. These cells were logarithmically grown in SD-URA medium, stained with FM4−64 and analysed by confocal microscopy. Single slices of the images are shown. Scale bar: 1 μm. Arrowheads indicate regions of Vps10 vacuolar localisation, and open arrowheads indicate Vps10 localised to pre-vacuolar comparmtnets. C Graph representation showing the Pearson Colocalizastion Coefficient between the vacuolar and Vps10 signals of Vps5 deleted yeast cells shown in B quantified using JACoP (Just Another Co-localization Plugin) implemented in ImageJ. Error bars are the standard deviations calculated from ≥ 70 measurements from 2 experiments.
# The Saccharomyces cerevisiae strains are derived from SEY6210 (Supplementary Table 3). Vps5 and Pep4 deletions, Vps5 N-terminal point mutations and endogenous tagging of Vps10 was conducted based on the CRISPR-Cas9 system. The vector co-expressing single guide RNA and Cas9 enzyme was co-transformed into yeast cells with double-stranded oligonucleotides as the templates for homologous recombination (Supplementary Table 4). For Vps5 deletion, the template contained 40-bp homology upstream and downstream of its coding sequence. Vps10^mNeonGreen was created by a template comprising its C-terminal region with mutated PAM sequence and fused mNeonGreen tag followed by 40-bp homology region after the stop codon. Vam10 was cloned into pRS305 vector using Not1/Sma1 restriction sites to generate an integrative plasmid that was linearized, transformed and integrated ectopically into the auxotrophic selectable marker LEU2 gene locus. […]
# [9] = test system: yeast vps5Δ cells (SEY6210); experiment: Vacuole fragmentation (FM4−64) in vps5Δ yeast; assay type: cell-based, Saccharomyces cerevisiae; details: vps5Δ cells complemented with Vps5 variant on plasmid
# Description: The Saccharomyces cerevisiae strains are derived from SEY6210 (Supplementary Table 3). Vps5 and Pep4 deletions, Vps5 N-terminal point mutations and endogenous tagging of Vps10 was conducted based on the CRISPR-Cas9 system. The vector co-expressing single guide RNA and Cas9 enzyme was co-transformed into yeast cells with double-stranded oligonucleotides as the templates for homologous recombination (Supplementary Table 4). For Vps5 deletion, the template contained 40-bp homology upstream and downstream of its coding sequence. Vps10^mNeonGreen was created by a template comprising its C-terminal region with mutated PAM sequence and fused mNeonGreen tag followed by 40-bp homology region after the stop codon. Vam10 was cloned into pRS305 vector using Not1/Sma1 restriction sites to generate an integrative plasmid that was linearized, transformed and integrated ectopically into the auxotrophic selectable marker LEU2 gene locus.
# The VPS5 gene with its native promoter, C-terminally fused HA-tag and ADH1 terminator was cloned into pRS314 centromeric plasmid. A point mutation was introduced in the start codon of VAM10 (M-to-I) by site-directed mutagenesis, because VAM10 overlaps with VPS5[71]. […] For the N-terminal deletion mutant of Vps5 (Δ1-280), residues 838–2025 of VPS5 were amplified and subcloned into the pRS314-VPS5-HA plasmid described above using Nco1/Sma1 restriction sites. The plasmid bearing the PL motif mutation (L196R) was generated using site-directed mutagenesis in the pRS314-VPS5-HA plasmid. To abolish all three putative binding sites to Retromer, a synthetic gene fragment of VPS5 (ordered from GenScript) containing the following mutations—start codon of VAM10 sequence(M-to-I), L196R, L121G, F122G and F161E—was subcloned into the pRS314-VPS5-HA plasmid using Nco1/Stu1 restriction sites.
# Vacuoles were stained with FM4−64. Cells were grown in SD^-URA medium to an OD600 between 0.6 and 1.0. The culture was diluted to an OD600 of 0.4, and FM4−64 was added to a final concentration of 10 µM from a 10 mM stock in DMSO. […]
# [10] = test system: scRetromer and scSNX-BAR on supported membrane tubes; experiment: Supported membrane tube (SMT) assay; assay type: biochemical, Saccharomyces cerevisiae
# Description: Supported membrane tubes were generated as described[46]. Briefly, glass coverslips were first washed with 3 M NaOH for 5 min and rinsed with water before a 60 min treatment with piranha solution (95% H2SO4/30% H2O2 3:2 v/v). Coverslips were rinsed with water and dried on a heat block at 90 °C. Coverslips were then silanized with 3-glycidyloxypropyltrimethoxysilane (Catalogue no. 440167, Sigma) for 5 h under vacuum, rinsed with acetone and dried. Polyethylene glycol coating was done by placing the coverslips in a beaker containing PEG400 (Sigma) at 90 °C for 60 h. Coverslips were washed with distilled water and stored for up to 2 months at room temperature in a closed container.
# To generate supported membrane tubes, lipids were mixed from 10 mg/mL stocks in a glass vial and diluted to a final concentration of 1 mg/mL in chloroform. The same lipid mix was used throughout this study (5% PI(3)P, 15% DOPS, 0.1% fluorescent lipid tracer (Cy5.5 PE or Texas red DHPE), 79.5% egg-PC). Lipids were then spotted (typically 1 µL, corresponding to about 1 nmol) on the coverslips and dried for 30 min under vacuum. The coverslip was mounted on an IBIDI 6-channel µ-slide (µ-Slide VI 0.4. IBIDI, catalog no: 80606). Lipids were hydrated for 15 min with buffer (PBS) and SMTs were generated by injecting PBS into the chamber using an Aladdin Single-Syringe Pump (World Precision Instruments, model n°. AL-1000) at a flow rate of 1,5 mL/min for 5 min. SMTs were left to stabilize without flow for 5 min before the start of the experiment. Protein stocks (typically 1–2 µM) were first diluted in PBS and then injected in the chamber at a flow rate of 80 µL per minute. Cyclic peptides were added to the proteins from a 30 mM stock in DMSO to a final concentration of 300 µM. the protein/peptide mix was incubated for 1 min at room temp (23 °C) before being added to the SMTubes.
molecule,measurement,setting,value
GST-ctVps5_(51–100) (domain or fragment),Kd,[1],1600 nM
same,dH,[1],-2.16 kcal/mol
same,Kd,[2],660 nM
same,dH,[2],-4.1 kcal/mol
"GST-tagged scVps5_70–128: GST-tagged S. cerevisiae Vps5 residues 70–128 containing the LF motif (GLSVAGNPQLEEHDNSKADDLINSLAPEQDPIADLKNSTTQFIATRESGGALFTGNANS; not fully specified (N-terminus); also: GST fusion, end not given here)",binding to hRetromer in GST pull-down,[3],only binds weakly to VPS35
same,binding to hRetromer in GST pull-down,[3]; listed as GST- scVps570-128,binds weakly to hRetromer
"ctRetromer (Chaetomium thermophilum Retromer trimer of ctVps35, ctVps26 and ctVps29) (complex)",stoichiometry N (ctRetromer per ctVps5 dimer),[4],2
same,stoichiometry N (ctRetromer per ctVps5 dimer),[5],1
"ctVps5 (full length, homodimer) (natural protein)",Kd with 100 µM RT-D3 (competitor) present,[6],9410 nM
same,dH,[6],-10.5 kcal/mol
same,Kd,[2],720 nM
same,dH,[2],-8.5 kcal/mol
same,Kd with 100 µM RT-D1 L7E (control peptide) present,[7],750 nM
same,dH,[7],-7.53 kcal/mol
same,stoichiometry N,[5],2
B1,Vps10 recycling/localisation,[8],severe Vps10 recycling sorting defect
same,vacuole fragmentation,[9],strong vacuole fragmentation
same,Vps5–Vps17 heterodimer formation of mutant,[10]; quadruple mutant Vps5 with scVps17,do not impair heterodimer formation
same,coat formation / recruitment on SMTs,[10]; scSNX-BAR and scRetromer on SMTs containing 5% PtdIns(3)P,showed a defect of coat formation
B2,Vps10 recycling/localisation,[8],partial defect in Vps10 recycling
same,vacuole fragmentation,[9],partial rescue of vacuole fragmentation
B3,Vps10 recycling/localisation,[8],localization of Vps10-mNeonGreen on punctate structures
same,vacuole fragmentation,[9],clear recovery of large vacuoles
